# B1: SDGF-YAP (50-171), surface-tethered on HEK-293 cells (other, UniProt P46937 50-171, looked up)
# chain: AGHQIVHVRGDSETDLEALFNAVMNPKTANVPQTVPMRLRKLPDSFFKPPEPKSHSRQASTDAGTAGALTPQHVRAHSSPASLQLGAVSPGTLTPTGVVSGPAATPTAQHLRQSSFEIPDDV
# Biological target: T1, TfR (Biotinylated; site and any biotin-acceptor or purification tag are not stated in the passages seen.)
# T1 construct: also called biotinylated TfR ectodomain; control protein
# Test: flow cytometry, 293F cells displaying YAP (SDGF), co-incubated with biotinylated TfR ectodomain (control protein) and streptavidin-Alexa647
# T1 sequence (chain, as listed by the source limits assumed): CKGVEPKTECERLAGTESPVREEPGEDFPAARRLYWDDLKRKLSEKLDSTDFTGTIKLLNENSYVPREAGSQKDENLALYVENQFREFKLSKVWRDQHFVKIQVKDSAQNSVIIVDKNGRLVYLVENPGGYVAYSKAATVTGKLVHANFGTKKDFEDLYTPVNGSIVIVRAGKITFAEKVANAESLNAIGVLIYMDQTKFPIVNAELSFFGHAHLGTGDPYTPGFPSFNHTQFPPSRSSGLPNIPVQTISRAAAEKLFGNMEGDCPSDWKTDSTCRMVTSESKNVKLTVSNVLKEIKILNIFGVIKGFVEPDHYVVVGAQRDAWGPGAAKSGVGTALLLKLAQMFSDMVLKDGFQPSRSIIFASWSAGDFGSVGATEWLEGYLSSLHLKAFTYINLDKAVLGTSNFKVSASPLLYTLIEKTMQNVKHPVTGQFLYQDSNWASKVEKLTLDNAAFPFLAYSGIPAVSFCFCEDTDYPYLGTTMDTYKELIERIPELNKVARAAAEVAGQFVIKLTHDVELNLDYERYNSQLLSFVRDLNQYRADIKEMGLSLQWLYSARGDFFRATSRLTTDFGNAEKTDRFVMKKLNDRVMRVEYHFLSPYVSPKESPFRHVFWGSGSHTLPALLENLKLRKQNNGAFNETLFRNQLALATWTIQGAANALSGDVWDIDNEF
binder,measurement,value
B1,binding result,no binding (tested: not shown on the sheet)
